Data reported in the nanobody polyreactivity screen of Harvey et al. (2022).

Assay: yeast display, Sf9 membrane polyspecificity reagent, FACS + sequencing; frameworks hold sequencing errors
Summary of the method: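 A synthetic nanobody library was expressed on Saccharomyces cerevisiae BJ5465 by galactose induction for 36–48 hours. The library was stained for 1 hour at 4 °C with 10% biotinylated, detergent-solubilized Sf9 membrane reagent and enriched with streptavidin microbeads before FACS. Low and high (top ~1%) gates were set on anti-HA fluorescence for expression and streptavidin fluorescence for reagent binding, and each polyreactivity label reflects the gate of origin.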

Sequence	polyreactivity (PSR sort gate)
QDQHVESGGGLVQAGGSLRLSCAASGRTFYRNAMGWYRQAPGKEREFVAVISVSCGSTYYADSVKGRFTISRDNAKNTVYLQMNSLKPEDTAVYYCAKRGPVRKTAYDYCGQGTQVTVSS	low polyreactivity
QVQLVESGGGLVQAGGSLRLSCAASGFTFSINTMGWYRQAPGKEREFVAGISRSGGSTYYADSVKGRFTISRDNAKNTVYLQMNSLKPEDTAVYYCLKYYQGYDYWGQGTQVTVSS	high polyreactivity
QVQLVESGGGLVQAGGSLRLSCAASGSIFSGNAMGWYRQAPGKERELVASINRSGGSTYYADSVKGRFTISRDNAKNTVYLLMNSLKPEDTAVYYCAARRVWLAGYDSWGQGTQVTVSS	low polyreactivity
QVQLVESGGGLVQAGGSLSLSCAASGSTFAYYAMGWYRQAPGKERELVAGITWTGGSTYYADSVKGRFTISRDNAKNTVYIQMNSLKPEDTAVYYCAVTYPISEFYWGVKDRYDYWGQCTQVTVSS	low polyreactivity
QVQLVESGGGLVQAGGSLRLSCAASGSIFVYNAMGWYRPAPGKERELVAGITLIGGSTYYADSVKGRFTISRDNAKNTVYLQMNSLKPEDTAVYYCAVLVVGSTTQDEPYFSGVEHDYWGQGTQVTVSS	low polyreactivity
QVQLVESGGGLVQAGGSLRLSCAASGPTNAMGWYRQAPGKERELVAAITKSGGSTYYADSVKGRFTISRDNAKNTVYLLMNSLKPEDTAVYYCALILRHTAYYYWGQGTQVTVSS	high polyreactivity
QVQLVESGGGLVQAGGSLRLSCAASGSIFYHYVMGWYRQAPGKDRELVAGISWSGVSTYYADSVKGLFTISRDNAKNTVYLQMNSLKPEDTAVYYCAAVYRQSRLHTFGYWGQGTQVTVSS	high polyreactivity
QVQLLESGGGLVQAGGSLLLSCAASGLTFHRYAMGWYRQAPGKERELFAAINYSGGRTYYADSVKGRFTISRDNAKNTVYLQMNSLKPEDSAVYYCAARYLGCDYSGSWWKYYYWGQGTQVTVSS	high polyreactivity
QVQIVESRGGLVQAGGSLRLSCAASGFIIYKYALGWYRQAPRKERELVAAISSSGGNTYYADSVKGRFTNSRDNAKNTVFLQMMSLKPEDTAVYYCAADYYVSKSRYYSYGYWGQGTQVTVSS	high polyreactivity
QEQLEESGGGLVQAGGRLRLSCAASGSIFTTYTMGWYRQAPGKERELVAAIDYSGDSTYYADSGKGRFTISRDTAKNTVYLQMNSLKPEDTAVYYCNAVSFSAYVPYGYWGQGTQVTVSS	low polyreactivity
QVQLVESGGGLVQAGGSLRLSCAASGIIFWLYAMGWYRQAPGKERELVAAINWSGSTTYYADSVKGRFTISRDNAKNTVYLQMNSLKPEDTAVYYCAASRVRAYYYTSSLRRYYYWGQGTQVTVSS	high polyreactivity
QVQLVETGGGLVQAGGSLRLSCAASGSTFESNTMGWYRQAPGKERELVAAISYSGGRTYYADSVKGRFTISRDNAKNTVYLQMNSLKPEDTAVYYCAARWSVSYQYWGQGSQVTVSS	high polyreactivity
QVQLVESGGGLVQAGGSLRLSCAASGSTINQYPMGWYRQAPGKERDLVAAITRRGGSTYYADSVKGRCTISSDNAKNTVYLQLNSLKPEDTAVYYCAAAYPYTTVSYDYWGQGTQVTVSS	high polyreactivity
QVELVESGGGLVQAGGSRRLSCAASGSTFYAYAMGWYRQAPGKERELVAAISASGDSTYYADFVKGRFTISRDNAKNTVYLQMNSLTPEDTAVYYCAAEVYYRPQDYYTYPDYYWGQGTQVTVSS	high polyreactivity
QVQLVESGGGLVQAGGSLRLSCAASGRTLVDYGMGWYRQPPGKERELVAVITSGGSTYYADSVKGRFTISRDNAKNTVYLVMNSLKPEDTAVYYCNARHPYYTVQTGGYDYWGQGTQVTVSS	low polyreactivity
QVQLQESGGGLVQAGGSLRLSCAASCTISQEDWIGWYRQAPGKEREFVAAIGLGSNTNYADSLKGRFTISRDNAKNTVYLQMNSLKPEDTAVYYCAVSVWQYSDHVYRGQGTQVTVSS	low polyreactivity
QVQLVESGGGLVQAGGSLRLSCAASGITFYLNAMVWYRQAPGKERELVADITVSGGSTYYADSVKGRFTISRDYAKNTVYLQMNRLKPEDTAVYYCAADLTISYSQEYYYWGQGTQVTVSS	low polyreactivity
QVQLVESGGGVVQAGGSLRLSSAASGIIFKRYAMGWYRQAPGKEREFVAAISRSGVRTYYADSVKGRFTISRDNAKNTVFLQMNSLNPEDTAVYYCAAEFANYRDTGESVYWFYYWGQGTQVTVSS	high polyreactivity
QVQLVESGGGLVQAGGSLRLSCAASGRIFLYNAMGWYRQAPGKERELVAVISSNGGRTYYADSVKGRFTISRDNAKNTVYLQMNSLKPEDTAVYYCAAVQHYVTHMDYWGQGTQVTVSS	low polyreactivity
QVQLVESGGGLVQAGGSLRLTCAASGRTFRYYVMGWYRQAPGKERELVASITSDATYYADSVKGRFTISRDNAKNTVYLQLNSLKPEDTAVYYCAKRYPYRHRTYNPVAYDYWGQGTQVTVSS	high polyreactivity
QVQLVESGGGLVQAGGSLRLSCAASGSIFIYNAMGWYRQAPGKERELVAAINWTGGSTYYADSVKGRFTISRDNAKNTVYLQMNSMKPEDTAVYYCNALRYGSTRGYDYWGQGSQVTVSS	high polyreactivity
QVQLVESGGGLVQAGGSLRLICAASGSIFYANAMGWYRQAPGKEREFVAANSSSGGGTSYADSVKGRFTISRDNAKNTVYLQMNSLKPEDTAVYYCAARVTYGGIPARQIYDYWGQGTQVTVSS	low polyreactivity

Sequence	polyreactivity (PSR sort gate)
QVQLVESGGRLVQAVGSLRLSCAASGRTFEYYNMGWYRQEPGKEREFVAANTWGGGSTSYADSVKGRFTISRDNAKNTVYLQMNSLKPEDTAVYYCAADDVYYDDDYWGQGTQVTVSS	high polyreactivity
QVQLVESGGGLDQAGGSLRLSCAASGSTFYPYAMGWYRQAPGKERDFVAAISYSAGSTYYADSVKGRFTISRDNAKNTVYLQMHSLKPEDTAVYYCADYGWYTYQTSYDYWGQGTQVTVSS	low polyreactivity
QDQLVESGGGLVQSGGSLLLSCAPSGSMFSFYAMGCYRQAPGKEMELVAAITRGGATTNFADSVKGRFTISRDNAKNTVYLQMNSLKPEDTAVYYCAARTPNVNAVWMDYWGQGTQVTVSS	high polyreactivity
QVQLVESGGGLVQAGGSLRLSCAPTGFIFFTYAMGWYRQAPGKERELVAAISQSGASTYYADSVKGRFTISRDNAKKTVYLQMNSLKPEDSAVDYCAATYSFRYWIQRYNYWGQGTQVTVSS	low polyreactivity
QVQLVESGGGLVQAGGSLRLSCAASGSSIYVYVMGWYRQAPGKERELVAVIDWRGGSTYYADSVKGRFTISRDNAKNTVYLQMNSLKPEDSSVYYCNKVAQFYYKLPYYKERDWGQGTQVTVSS	low polyreactivity
QVQLVESGGGLVQAGGSLRLSCAASGLTFASYAMGWYRPAPGKERELVARISRSGGSTYYADSVKGRFTISRDNAKNTVYLQMNSLKPEDTAVYYCAADYIFRRYPVGGIYDYDYWGQGTQVTVSS	high polyreactivity
QVQLVESGGGLVQAGGSLRLSCAASGRTYHGYAMGWYRQAPGKERELVARINWSDGRTYYADSVKGRFTISRDNAKNTVYLQMNSLKPEDTAVYYCAADKTVSYAPAWYYYWGQGTQVNVSS	low polyreactivity
QVQLVESGGGLVQAGGSLRLSCDASGRIFRENAMGWYRQAPGKERELVAAINRSGSRTYYADSVKGRFTISRDNAKNTVYLQMNSLKPEDTAVYYCATASSIRYDYWGQGTQVTVSS	high polyreactivity
QVQLVESGGGLVQAGGSLRLSCAASGLIFYRYTMGWYRQAPGKERELVAAISWSGGRTYYADSVKGRFTISRDNAKNTVYLQMNSLKPEDTAVYYCNAVYYYTRASVPYDYWGQGTQVTVSS	high polyreactivity
QVQLVESGGGLVQAGGSLRLSCAASGSTFGWYAMGWDRQAPGKERELVAAIRNNDGRTYYADSVKGRFTISRDNAKNTVYLQMNSLKPEDTAVDYCNKRLDTVGWYHGYNYWGQGTQVTVSS	low polyreactivity
QDQLVESGGGLVQAGGSLRLSCDASGSIIQSYTMGWYRQAPGKERELVAAIDSGGSTYYADSVKGRFTISRDNAKNTVYLQMNSLKPEDTAVYYCAAEPDTYWYTYDYWGQGTQVTVSS	low polyreactivity
QFQLVESGGGLVQAGCSLRLSCAASGGTFGLYAMGWYRQAPGKERELVAANTWSDSSTYYADSVKGRFTISRDNAKNTVYLQMNSLKPEDNAVYYCAADYGDADTWWPSAEYHSGRDYWGQGTQVTVSS	low polyreactivity
QVQLVESGGGLVQAGGSLRLSCAASGTFVYYAMGWYRQAPGKERELVAVISLNGGITYYADSVKGRFTISRDNAKNTVYLQMNSLKPEDTAVYYCNAQFYNSGWSFKYYYWGQGTQVTVSS	low polyreactivity
QVQLVESGGGLVQAGGSIRLSCAASGRIFGRNAMGWYRQAPGKERELVAAISSSGGTYYADSGKGRFTISRDNAKNTVYLQMNSLKPEDTAVYYCNGRVRTQQRWVDYWGQGTQVTVSS	high polyreactivity
QVQLVESGGGLVQAGGSLRLSCAASGRTFSVNAMGWYRQAPGKERELVAAISWDGGSTYYADSVKGRFTISRDTAKNTVYLQMNSLKPEDTAVYYCNKDLYYAYDYWGQGTQVTVSS	low polyreactivity
QVQLVESGGGLVQAGGSLRLSCAASGLTFWYYDMGWYRQAPGKERELVAAISGTGSTYADSVKGRFTISRDNAKNTVYLQMNSLKPEDTAVYYCAADYSGTPYAVYWQWGDYDYWGQGTQVTVSS	low polyreactivity
QVQLVESGGGLVQAGGSLRLSCAASGSTFGGNAMGWYRQAPGKEREFVAAISYSGGSTYYADSVKGRFTISRDNAKNTVYLQMNSLKPEDTAVYYCAATGEPPVFRNGYWGQGTQVTVSS	low polyreactivity
QVQLVESGGGLVQAGGSLRLSCAASGLTFWSYAMGWYRQAPGKERELVAAISKRGGSTYYADSVKGRFTISRDNAKNTVYLQMNSLKPEDTAVYYCAARTFRALNKYYYWGQGTQVTVSS	high polyreactivity
QVQLVESGGGLVQAGGRLRLTCAPSGTIIYQYAMGFDRHAPGKERELVAASSTTGGPTYYADSVKGRFTISRDNAKKTVYLQMNSLKPEDTAVYYCAAEKYYGYDYWGQGTQVTVSS	high polyreactivity
QVQLVESGGGIVQAGGSLRLSCTASGFTFTYYAMGSYRQAPGKERELVAAISWSGGSTYYADSVKGRFTISRDNAKNTVYLQMNSLKPEDTAVYYCNKVGRAIGPYDYWGQGTQVTVSS	high polyreactivity
QVQLVESGGGLVQAGGSLRLSCAASGYTFTRYAMGWYRQAPGKEREFVAAITSGGGSTYYADSVKGRFTISRDNAKNTVYLQMNSLKPEDTAVYYCAADLTSLWYTVQLELDFWGQGTQVTVSS	low polyreactivity
